# Experimental data from article PMC3711439, “Mechanisms of in vivo binding site selection of the hematopoietic master transcription factor PU.1”.
# B1: PU.1 motif oligo 71 (dsDNA)
# DNA 1: ACGTTGCTTCCTCCCTACGT
# DNA 2: ACGTAGGGAGGAAGCAACGT
# B2: PU.1 motif oligo 74 (dsDNA)
# DNA 1: ACGTCTCTTCCTTAAAACGT
# DNA 2: ACGTTTTAAGGAAGAGACGT
# B3: PU.1 motif oligo 73 (dsDNA)
# DNA 1: ACGTAACTTCTTCAAAACGT
# DNA 2: ACGTTTTGAAGAAGTTACGT
# B4: PU.1 motif oligo 64 (dsDNA)
# DNA 1: ACGTGACTTCCACAATACGT
# DNA 2: ACGTATTGTGGAAGTCACGT
# B5: PU.1 motif oligo 68 (dsDNA)
# DNA 1: ACGTGACTTCTGCTTTACGT
# DNA 2: ACGTAAAGCAGAAGTCACGT
# B6: PU.1 motif oligo 69 (dsDNA)
# DNA 1: ACGTCAGTTCTGCTTTACGT
# DNA 2: ACGTAAAGCAGAACTGACGT
# B7: PU.1 motif oligo 9 (dsDNA)
# DNA 1: ACGTCACTTCCTCTCAACGT
# DNA 2: ACGTTGAGAGGAAGTGACGT
# B8: PU.1 motif oligo 8 (dsDNA)
# DNA 1: ACGTCACTTCCCCTTAACGT
# DNA 2: ACGTTAAGGGGAAGTGACGT
# B9: PU.1 motif oligo 63 (dsDNA)
# DNA 1: ACGTCACTTCCACAGTACGT
# DNA 2: ACGTACTGTGGAAGTGACGT
# B10: PU.1 motif oligo 72 (dsDNA)
# DNA 1: ACGTAATTTCCTCATCACGT
# DNA 2: ACGTGATGAGGAAATTACGT
# B11: PU.1 motif oligo 66 (dsDNA)
# DNA 1: ACGTCAGTTCTCTTTTACGT
# DNA 2: ACGTAAAAGAGAACTGACGT
# B12: PU.1 motif oligo 67 (dsDNA)
# DNA 1: ACGTGACTTCCTTCACACGT
# DNA 2: ACGTGTGAAGGAAGTCACGT
# B13: PU.1 motif oligo 65 (dsDNA)
# DNA 1: ACGTTTCTTCCTCTTCACGT
# DNA 2: ACGTGAAGAGGAAGAAACGT
# B14: PU.1 motif oligo 70 (dsDNA)
# DNA 1: ACGTATCTTCCTCACTACGT
# DNA 2: ACGTAGTGAGGAAGATACGT
# B15: PU.1 motif oligo 62 (dsDNA)
# DNA 1: ACGTCTCTTCCTCCCTACGT
# DNA 2: ACGTAGGGAGGAAGAGACGT
# B16: PU.1 motif oligo 75 (dsDNA)
# DNA 1: ACGTCAGTTCTGCATTACGT
# DNA 2: ACGTAATGCAGAACTGACGT
# B17: PU.1 motif oligo 10 (dsDNA)
# DNA 1: ACGTCACTTCCTGTTTACGT
# DNA 2: ACGTAAACAGGAAGTGACGT
# B18: PU.1 motif oligo 61 (dsDNA)
# DNA 1: ACGTATCTTCCTCATAACGT
# DNA 2: ACGTTATGAGGAAGATACGT
# Target: PU.1 (human, UniProt P17947 1-270)
# Test: MST; MST: 20 mM Tris-HCl pH 7.6, 1.5 mM MgCl2, 0.5 mM EGTA, 10% glycerol, 300 mM KCl, 10 mM DTT, 25 C; 50 nM Cy3-dsDNA, PU.1 1:1 dilutions from 23 uM
# Conditions: protein: recombinant; tags: N-terminal His-tag; label: Cy3 on upper strand
row,Binder,Kd [nM]
1,B1,2200 ± 1640
2,B2,1150
3,B3,1520 ± 580
4,B4,1220 ± 350
5,B5,828 ± 51
6,B6,909 ± 28
7,B7,676 ± 67
8,B8,441 ± 18
9,B9,1930 ± 220
10,B10,1080 ± 251
11,B11,2000 ± 40
12,B12,1240 ± 370
13,B13,872 ± 57
14,B14,2020 ± 100
15,B15,1940 ± 1260
16,B16,1190 ± 140
17,B17,175 ± 16
18,B18,790 ± 77
